Drawing on article PMC8136818, this text covers binding signal for 3 sequences.

The data set relates to SmpO45 (Staphylococcus aureus plasmid pWBG745). The experiment in a line: SPR. The conditions noted are these: SPR: 10 mM HEPES, 150-300 mM NaCl, 3 mM EDTA, 0.05% Tween 20, 1 uM protein (pH, temperature not given); EMSA: Li-Cor binding buffer, 0.5 ug/ul herring sperm …. Background: Mobility shift assays separate free from complexed probe on a gel.
For the sequence “CCCCATAAAATATGGGGTCATATTTCCCTT / AAGGGAAATATGACCCCATATTTTATGGGGCCTACCCTACGTCCTCCTGC [OT45.10]”, the binding signal worked out at 30 % Rmax.

“GACACTATAGTTTATTGTGGGGTCACTTTA / TAAAGTGACCCCACAATAAACTATAGTGTCCCTACCCTACGTCCTCCTGC [OT45.3]” showed a binding signal of 30 % Rmax. Sequence “TTTATTGTGGGGTCACTTTAAATTCTTTAA / TTAAAGAATTTAAAGTGACCCCACAATAAACCTACCCTACGTCCTCCTGC [OT45.4]” yielded a binding signal of 30 % Rmax.
